Consider twelve molecules from patent publication US20230235013A1 (MABSOLVE, published 2023).

Test [1] has as its target T1, Sheep Fc-CD52 fusion protein (Absolute Antibody Cat. No. PR00205) (human, UniProt P31358 25-36).
T1 construct: bought; also called CD52 antigen; human CD52; not shown: sheep Fc
Kind of test: ELISA, antigen coated, antibody 5 µg/mL.

The target of test [2] is T2, human FcγRIIIA (F158, Sino Biological Cat. No. 10389-H08H) (human, UniProt P08637 17-208).
T2 construct: bought; also called human FcγRIIIa F158 allele
T2 sequence (P08637 17-208 limits assumed): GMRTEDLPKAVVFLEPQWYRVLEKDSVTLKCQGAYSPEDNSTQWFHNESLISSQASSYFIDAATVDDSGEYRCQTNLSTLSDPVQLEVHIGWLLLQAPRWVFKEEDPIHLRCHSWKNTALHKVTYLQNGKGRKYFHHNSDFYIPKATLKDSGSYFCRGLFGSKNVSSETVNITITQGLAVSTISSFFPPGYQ
The test can be described thus: SPR, captured His-receptor.

Test [3] concerns the target human FcγRIIIa V158 allele (human, UniProt P08637 17-208, limits assumed). The test can be described thus: SPR, captured His-receptor.
Test [4] has as its target T3, human FcγRIIIB (NA2 allotype, Sino Biological Cat. No. 11046-H08H) (human, UniProt O75015 17-200).
T3 construct: bought; also called human FcγRIIIb NA2 allele
Kind of test: SPR, captured His-receptor.

In test [5] the target is T4, human FcγRIIB (Sino Biological Cat. No. 10259-H08H) (human, UniProt P31994 43-217).
T4 construct: bought
T4 sequence (looked up): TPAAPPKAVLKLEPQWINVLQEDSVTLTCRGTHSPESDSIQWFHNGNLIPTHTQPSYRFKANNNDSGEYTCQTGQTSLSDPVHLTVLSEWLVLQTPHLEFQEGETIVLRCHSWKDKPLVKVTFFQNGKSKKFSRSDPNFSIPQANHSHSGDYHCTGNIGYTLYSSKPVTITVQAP
Kind of test: SPR, captured His-receptor.

The target in test [6] is T5, human FcγRIIA (R131, Sino Biological Cat. No. 10374-H08H) (human, UniProt P12318 34-218).
T5 construct: bought; also called human FcγRIIa R131 allele; FcγRII allele R131
T5 sequence (looked up): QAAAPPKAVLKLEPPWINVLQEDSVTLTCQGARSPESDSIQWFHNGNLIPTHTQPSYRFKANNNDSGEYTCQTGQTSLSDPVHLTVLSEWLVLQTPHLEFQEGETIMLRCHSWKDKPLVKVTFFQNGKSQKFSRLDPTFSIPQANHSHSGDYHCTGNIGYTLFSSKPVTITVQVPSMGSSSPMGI
The test can be described thus: SPR, captured His-receptor.

The target of test [7] is T6, mouse FcγRI (Sino Biological Cat. No. 50086-M08H) (mouse, UniProt P26151 25-297).
T6 construct: bought
T6 sequence (looked up): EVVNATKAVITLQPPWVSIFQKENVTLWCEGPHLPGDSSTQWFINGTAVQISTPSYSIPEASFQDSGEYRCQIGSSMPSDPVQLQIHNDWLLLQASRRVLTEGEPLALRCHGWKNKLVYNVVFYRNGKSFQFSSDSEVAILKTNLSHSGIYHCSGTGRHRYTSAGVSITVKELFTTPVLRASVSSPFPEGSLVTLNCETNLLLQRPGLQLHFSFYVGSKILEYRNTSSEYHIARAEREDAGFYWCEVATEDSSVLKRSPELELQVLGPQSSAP
The test can be described thus: SPR, captured His-receptor.

In test [8] the target is T7, Histidine-tagged recombinant human FcγRI (CD64) (human, UniProt P12314 16-288).
T7 construct: bought; also called Sino Biological Cat. No. 12056-H08H
The test can be described thus: SPR, captured His-receptor.

Test [9] concerns the target T8, CD3D/CD3E heterodimer (Sino Biologicals Cat. No. CT038-H2508H) (human, UniProt P04234 22-105; P07766 23-126).
T8 construct: bought; also called CD3 antigen; human CD3
Kind of test: ELISA, antigen coated, antibody 5 µg/mL.

Substitutions are numbered along the chain they refer to. Names may count otherwise.

human FcγRIIIa V158 allele, sequence (P08637 17-208 F176V limits assumed): as the sequence (P08637 17-208 limits assumed) above, with F160V counted along it

B1: anti-CD52 human IgG1 L234S/L235T/G236R (antibody)
heavy: QVQLQESGPGLVRPSQTLSLTCTVSGFTFTDFYMNWVRQPPGRGLEWIGFIRDKAKGYTTEYNPSVKGRVTMLVDTSKNQFSLRLSSVTAADTAVYYCAREGHTAAPFDYWGQGSLVTVSSASTKGPSVFPLAPSSKSTSGGTAALGCLVKDYFPEPVTVSWNSGALTSGVHTFPAVLQSSGLYSLSSVVTVPSSSLGTQTYICNVNHKPSNTKVDKKVEPKSCDKTHTCPPCPAPESTRGPSVFLFPPKPKDTLMISRTPEVTCVVVDVSHEDPEVKFNWYVDGVEVHNAKTKPREEQYNSTYRVVSVLTVLHQDWLNGKEYKCKVSNKALPAPIEKTISKAKGQPREPQVYTLPPSRDELTKNQVSLTCLVKGFYPSDIAVEWESNGQPENNYKTTPPVLDSDGSFFLYSKLTVDKSRWQQGNVFSCSVMHEALHNHYTQKSLSLSPGK
light: not shown
notes: also called 4-52; copies: 2 + 2
On to B1, for which the “Mean Absorbance” value in [1] was found to be 1.44 absorbance. In addition, the binding result in [2], in test [3], in test [4], in test [5], in test [6] and in test [7] was “no binding (tested: 100 µg/mL)” throughout. In addition, the binding result in [8] was “no binding (tested: 100 µg/mL)”.

B2: anti-CD52 human IgG1 L234T/L235T/G236R (antibody)
heavy: B1 heavy with S238T
light: not shown
notes: also called 4-63; copies: 2 + 2
As for B2, the “Mean Absorbance” value in test [1] stood at 1.48 absorbance. Moreover, the binding result in test [2], in test [3], in test [4], in [5], in test [6] and in [7] was “no binding (tested: 100 µg/mL)” in each case. The binding result in [8] is reported as “no binding (tested: 100 µg/mL)”.

B3: anti-CD52 human IgG1 L234T/L235Q/G236R (antibody)
heavy: B1 heavy with S238T, T239Q
light: not shown
notes: also called 4-60; copies: 2 + 2
For B3, in test [1], the “Mean Absorbance” value stood at 1.35 absorbance. The binding result in test [2], in test [3], in test [4], in test [5], in test [6] and in test [7] was “no binding (tested: 100 µg/mL)” in each case. The binding result in test [8] was “no binding (tested: 100 µg/mL)”.

B4: anti-CD52 human IgG1 L234S/L235V/G236R (antibody)
heavy: B1 heavy with T239V
light: not shown
notes: also called 4-53; copies: 2 + 2
B4: the “Mean Absorbance” value in [1] was found to be 1.23 absorbance. For the same molecule, the binding result in [2], in test [3], in [4], in [5], in test [6] and in test [7] was “no binding (tested: 100 µg/mL)” each time. In addition, in test [8], the binding result is listed as “no binding (tested: 100 µg/mL)”.

B5: anti-CD52 human IgG1 L234G/L235S/G236R (antibody)
heavy: B1 heavy with S238G, T239S
light: not shown
notes: also called 4-19; copies: 2 + 2
Take B5: the “Mean Absorbance” value in [1] came out at 1.13 absorbance. The binding result in [2], in test [3], in test [4], in test [5], in test [6] and in test [7] was “no binding (tested: 100 µg/mL)” in each case. Besides, the binding result in [8] is “no binding (tested: 100 µg/mL)”.

B6: anti-CD3 (muromonab variable regions) human IgG1 wild type reference (antibody)
heavy: not shown
light: QIVLTQSPAIMSASPGEKVTMTCSASSSVSYMNWYQQKSGTSPKRWIYDTSKLASGVPAHFRGSGSGTSYSLTISGMEAEDAATYYCQQWSSNPFTFGSGTKLEIKRTVAAPSVFIFPPSDEQLKSGTASVVCLLNNFYPREAKVQWKVDNALQSGNSQESVTEQDSKDSTYSLSSTLTLSKADYEKHKVYACEVTHQGLSSPVTKSFNRGEC
notes: also called 3-1; wild-type CD3 antibody
For the molecule B6, the “Mean Absorbance” value in test [1] stood at 0.006 absorbance; in test [9], 1.01 absorbance.

B7: anti-CD3 human IgG1 L234S/L235T/G236R (antibody)
heavy: not shown
light: B6 light
notes: also called 3-52; copies: 2 + 2
As to B7, the “Mean Absorbance” value in test [9] came out at 1.38 absorbance. Further, the binding result in test [4], in [5], in test [6], in test [7] and in test [8] was “no binding (tested: 100 µg/mL)” throughout.

B8: anti-CD3 human IgG1 N297Q (aglycosyl) (antibody)
heavy: not shown
light: B6 light
notes: also called 3-67; copies: 2 + 2
As to B8, the “Mean Absorbance” value in [9] came to 0.749 absorbance. The binding result in [7] and in test [8] was “binds” each time.

B9: anti-CD3 human IgG1 L234T/L235T/G236R (antibody)
heavy: not shown
light: B6 light
notes: also called 3-63; copies: 2 + 2
For B9, the “Mean Absorbance” value in test [9] is 1.04 absorbance. Moreover, the binding result in [4], in test [5], in [6], in test [7] and in test [8] was “no binding (tested: 100 µg/mL)” in each case.

B10: anti-CD3 human IgG1 L234T/L235Q/G236R (antibody)
heavy: not shown
light: B6 light
notes: also called 3-60; copies: 2 + 2
Turning to B10, the “Mean Absorbance” value in test [9] was 1.33 absorbance. Moreover, the binding result in test [4], in [5], in test [6], in test [7] and in [8] was “no binding (tested: 100 µg/mL)” each time.

B11: anti-CD3 human IgG1 L234G/L235S/G236R (antibody)
heavy: not shown
light: B6 light
notes: also called 3-19; copies: 2 + 2
As for B11, the “Mean Absorbance” value in test [9] worked out at 1.24 absorbance. In addition, the binding result in test [4], in test [5], in test [6], in [7] and in [8] was “no binding (tested: 100 µg/mL)” each time.

B12: anti-CD3 human IgG1 L234S/L235V/G236R (antibody)
heavy: not shown
light: B6 light
notes: also called 3-53; copies: 2 + 2
In the case of B12, the “Mean Absorbance” value in test [9] came to 1.25 absorbance. Besides, the binding result in [4], in test [5], in test [6], in test [7] and in [8] was “no binding (tested: 100 µg/mL)” in each case.
